First the molecules themselves.
B1: ZNF263 (parent)
chain: HLTRHQRTHTGEKPYKCTLCGENF
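Also: lentivirally expressed fusions sorted by FACS into six bins by GFP to DsRed ratio, PSI derived from sequencing read proportions per bin multiplied by bin number.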

In this series the parent is B1. Nature of the series: protein stability index of a GFP-peptide fusion (GPS, HEK-293T) (PSI 1-6); higher = more stable. The note with it: c terminus: a fixed tail appended.
For the variant HLTRHQRTHTGDKPYKCTLCGENF, the protein stability index turned out to be 2.68. As for HLTRHQRWHTGEKPYKCTLCGENF, the protein stability index was found to be 2.29. As for HLTRHQRGHTGEKPYKCTLCGENF, the figure is 2.9. The value for HLTRHQRHHTGEKPYKCTLCGENF was 2.78; that for HLTRHQRMHTGEKPYKCTLCGENF was 2.5. The value for HLTRHQRNHTGEKPYKCTLCGENF was 3.22; that for HLTRHQRIHTGEKPYKCTLCGENF was 3.1. For HLTRHQRVHTGEKPYKCTLCGENF, the protein stability index was 2.65. Regarding HLTRHQRKHTGEKPYKCTLCGENF, the protein stability index is 2.38.

On to HLTRHQREHTGEKPYKCTLCGENF, for which the protein stability index is 3.4. Regarding HLTRHQRSHTGEKPYKCTLCGENF, the protein stability index came out at 3.4. The value for HLTRHQRQHTGEKPYKCTLCGENF was 3.41.

Consider HLTRHQRCHTGEKPYKCTLCGENF, for which the protein stability index was found to be 2.99.

For the variant HLTRHQRYHTGEKPYKCTLCGENF, the protein stability index turned out to be 2.25.

As for HLTRHQRPHTGEKPYKCTLCGENF, the protein stability index was 2.54.

With HLTRHQRRHTGEKPYKCTLCGENF, the protein stability index was determined as 3.49. For HLTRHQRAHTGEKPYKCTLCGENF, the protein stability index was determined as 3.44.

On to HLTRHQRLHTGEKPYKCTLCGENF, for which the protein stability index came to 2.78. In the case of HLTRHQRFHTGEKPYKCTLCGENF, the protein stability index is 2.46. As for HLTRHQRDHTGEKPYKCTLCGENF, the figure is 3.52.

On to HLTRHQRTHTGECPYKCTLCGENF, for which the protein stability index was 4.22. For HLTRHQRTHTGEDPYKCTLCGENF, the protein stability index amounted to 2.82. The value for HLTRHQRTHTGEAPYKCTLCGENF was 3.28.

Consider HLYRHQRTHTGEKPYKCTLCGENF, for which the protein stability index was determined as 2.36. Regarding HLNRHQRTHTGEKPYKCTLCGENF, the protein stability index was found to be 3.6.

With HLSRHQRTHTGEKPYKCTLCGENF, the protein stability index turned out to be 2.83. As for HLLRHQRTHTGEKPYKCTLCGENF, the figure is 2.1; as for HLWRHQRTHTGEKPYKCTLCGENF, 2.31; as for HLPRHQRTHTGEKPYKCTLCGENF, 2.48.

In the case of HLRRHQRTHTGEKPYKCTLCGENF, the protein stability index was determined as 3.77. The value for HLMRHQRTHTGEKPYKCTLCGENF was 2.63. As for HLGRHQRTHTGEKPYKCTLCGENF, the figure is 2.3. The value for HLQRHQRTHTGEKPYKCTLCGENF was 3.28.

Regarding HLKRHQRTHTGEKPYKCTLCGENF, the protein stability index was 3.1. The value for HLIRHQRTHTGEKPYKCTLCGENF was 2.33; that for HLVRHQRTHTGEKPYKCTLCGENF was 2.93; that for HLHRHQRTHTGEKPYKCTLCGENF was 3.4. As for HLTRHQRTHWGEKPYKCTLCGENF, the figure is 2.82; as for HLTRHQRTHDGEKPYKCTLCGENF, 2.78.

For the variant HLTRHQRTHGGEKPYKCTLCGENF, the protein stability index amounted to 2.92.

Take HLTRHQRTHEGEKPYKCTLCGENF: the protein stability index was 3.42. The value for HLTRHQRTHNGEKPYKCTLCGENF was 2.44.

For HLTRHQRTHPGEKPYKCTLCGENF, the protein stability index worked out at 2.45. HLTRHQRTHKGEKPYKCTLCGENF: the protein stability index turned out to be 3.12. The value for HLTRHQRTHCGEKPYKCTLCGENF was 2.96; that for HLTRHQRTHSGEKPYKCTLCGENF was 3.12. As for HLTRHQRTHLGEKPYKCTLCGENF, the protein stability index was found to be 1.98. The value for HLTRHQRTHQGEKPYKCTLCGENF was 3.44. For HLTRHQRTHYGEKPYKCTLCGENF, the protein stability index was found to be 2.58.

For HLTRHQRTHMGEKPYKCTLCGENF, the protein stability index came to 2.48.

Take HLTRHQRTHHGEKPYKCTLCGENF: the protein stability index stood at 3.19. The value for HLTRHQRTHAGEKPYKCTLCGENF was 3.14; that for HLTRHQRTHRGEKPYKCTLCGENF was 3.36; that for HLTRHQRTHVGEKPYKCTLCGENF was 2.45. As for HLTRHQRTHIGEKPYKCTLCGENF, the figure is 3.13; as for HLTRHQRTHFGEKPYKCTLCGENF, 2.73; as for HLTRHIRTHTGEKPYKCTLCGENF, 2.22. The value for HLTRHMRTHTGEKPYKCTLCGENF was 2.6; that for HLTRHVRTHTGEKPYKCTLCGENF was 2.29; that for HLTRHLRTHTGEKPYKCTLCGENF was 2.61. In the case of HLTRHHRTHTGEKPYKCTLCGENF, the protein stability index worked out at 3.28.

For HLTRHWRTHTGEKPYKCTLCGENF, the protein stability index worked out at 2.04. As for HLTRHRRTHTGEKPYKCTLCGENF, the figure is 3.19; as for HLTRHFRTHTGEKPYKCTLCGENF, 2.08; as for HLTRHERTHTGEKPYKCTLCGENF, 2.71. The value for HLTRHNRTHTGEKPYKCTLCGENF was 2.46; that for HLTRHTRTHTGEKPYKCTLCGENF was 2.75. The value for HLTRHSRTHTGEKPYKCTLCGENF was 3.68; that for HLTRHARTHTGEKPYKCTLCGENF was 2.93; that for HLTRHCRTHTGEKPYKCTLCGENF was 3.36. With HLTRHYRTHTGEKPYKCTLCGENF, the protein stability index stood at 2.7.

On to HLTRHDRTHTGEKPYKCTLCGENF, for which the protein stability index is 2.84. As for HLTRHKRTHTGEKPYKCTLCGENF, the figure is 2.94. As for HLTRHPRTHTGEKPYKCTLCGENF, the figure is 2.69; as for HLTRHGRTHTGEKPYKCTLCGENF, 2.85. As for HLTRHQWTHTGEKPYKCTLCGENF, the figure is 2.12; as for HLTRHQHTHTGEKPYKCTLCGENF, 4.64; as for HLTRHQPTHTGEKPYKCTLCGENF, 2.63.

Consider HLTRHQMTHTGEKPYKCTLCGENF, for which the protein stability index was 2.94. As for HLTRHQVTHTGEKPYKCTLCGENF, the figure is 2.96; as for HLTRHQETHTGEKPYKCTLCGENF, 3.98.

In the case of HLTRHQQTHTGEKPYKCTLCGENF, the protein stability index came to 2.96. As to HLTRHQSTHTGEKPYKCTLCGENF, the protein stability index is 3.36.

HLTRHQTTHTGEKPYKCTLCGENF: the protein stability index is 3.6.

In the case of HLTRHQITHTGEKPYKCTLCGENF, the protein stability index worked out at 2.4. The value for HLTRHQNTHTGEKPYKCTLCGENF was 3.51; that for HLTRHQKTHTGEKPYKCTLCGENF was 2.97; that for HLTRHQATHTGEKPYKCTLCGENF was 2.94. As for HLTRHQCTHTGEKPYKCTLCGENF, the figure is 4.78; as for HLTRHQYTHTGEKPYKCTLCGENF, 2.9. As for HLTRHQGTHTGEKPYKCTLCGENF, the figure is 3.39; as for HLTRHQLTHTGEKPYKCTLCGENF, 2.97. On to HLTRHQFTHTGEKPYKCTLCGENF, for which the protein stability index amounted to 2.49. Take HLTRHQDTHTGEKPYKCTLCGENF: the protein stability index came to 3.2.

The values are drawn from the supplement of paper PMC10567573.
